# Results taken from paper PMC6917645.
# Molecular target: Viperin-Flag (UniProt Q8WXG1)
# Sequence of UniProt Q8WXG1 (Q8WXG1 whole entry): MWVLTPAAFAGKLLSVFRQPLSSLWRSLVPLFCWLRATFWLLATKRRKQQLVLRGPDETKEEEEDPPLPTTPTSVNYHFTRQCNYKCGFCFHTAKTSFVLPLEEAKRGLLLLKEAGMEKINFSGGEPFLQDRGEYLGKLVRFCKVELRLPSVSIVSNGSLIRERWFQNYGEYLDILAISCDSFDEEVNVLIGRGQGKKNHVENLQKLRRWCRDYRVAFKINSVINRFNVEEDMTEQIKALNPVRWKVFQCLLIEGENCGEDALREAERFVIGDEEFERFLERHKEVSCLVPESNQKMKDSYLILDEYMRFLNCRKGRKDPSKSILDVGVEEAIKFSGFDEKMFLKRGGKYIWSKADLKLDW
substance,measurement,value
gD-EYFP (from UniProt Q69091 26-394) (natural protein),IRF7/6D-induced IFN-β promoter luciferase activity in HEK293T; gD-EYFP and Viperin-Flag together against gD or viperin alone,2 fold
